According to US20260167728A1 (published 2026):
Substitutions are numbered along the chain they refer to. Each block holds one binder with its values, some of them ahead of it.

Assays:
[1] = molecular target: T1, human CD3 (human, UniProt P07766 23-126); experiment: method not stated
[2] = molecular target: T2, human EGFR (human, UniProt P00533 25-645, limits assumed); experiment: BLI, room temperature
T2 construct: on HT-29 cells in the cytotoxicity assay; also called epidermal growth factor receptor
Experimental: Each construct was expressed in small-scale and purified. Thermal stability was determined by Differential Scanning Fluorimetry. Melting temperature (Tₘ) determined by Differential Scanning Fluorimetry experiments described herein were performed either in duplicate or triplicate using GloMelt™ dye and QuantStudio5™. GloMelt™ dye undergoes fluorescence enhancement upon binding to hydrophobic regions of denatured proteins. Therefore, the dye can be used to detect protein unfolding or measure thermal stability. GloMelt™ dye is optimized for detection in the SYBR® Green channel of qPCR instruments. The Differential Scanning Fluorimetry experiments were performed in 96-well plates with 10 μg protein/reaction (equal to 0.5 mg/mL final protein concentration), reaction buffer, and GloMelt™ 10× dye according to manufacturer's instructions. Fluorescence of 96-well plates was read and melt curve plots were generated in the QuantStudio5™ qPCR system. Binding affinity was analyzed with bio-layer interferometry at room temperature with human EGFR as the antigen.

[3] = molecular target: T2, human EGFR; experiment: cell-based or functional assay
[4] = molecular target: T3, huCD3e-mFc (human, UniProt P07766 23-126); experiment: Pool 3 screen
T3 construct: not shown: mFc, not described

[5] = molecular target: huCD3e (human, UniProt P07766 23-126); experiment: Octet primary screen, crude lysate
Experimental: Stability and affinity of the individually expressed molecules in the form of crude lysate was evaluated by Octet. […] The binding of these anti-CD3 molecules (CD3.227, CD3.228, CD3.229 and CD3.230) to human and cynomolgus CD3 was measured by Octet and the Tₘ was measured by Differential Scanning Fluorimetry. All variants were paired with an anti-PSMA VHH.

[6] = molecular target: T1, human CD3; experiment: Octet
[7] = molecular target: T3, huCD3e-mFc; experiment: Pool 3 screen, R2
[8] = molecular target: T3, huCD3e-mFc; experiment: Pool 3 screen, R3
[9] = molecular target: T1, human CD3; experiment: Octet, crude lysate
Experimental: Structural considerations included: possible contact disruption, anticipated steric clashes, side chain charge maintenance and possible pockets filling. Stability and affinity of the individually expressed molecules in the form of crude lysate was evaluated by Octet (ForteBio).

[10] = molecular target: T4, huCD3e-Fc (human, UniProt P07766 23-126); experiment: Octet, purified paTCE
T4 construct: not shown: Fc, not described
Experimental: (§1) […] […] The binding of these anti-CD3 molecules (CD3.227, CD3.228, CD3.229 and CD3.230) to human and cynomolgus CD3 was measured by Octet and the Tₘ was measured by Differential Scanning Fluorimetry. All variants were paired with an anti-PSMA VHH.

[11] = molecular target: T5, cyCD3e-Fc (cynomolgus, UniProt Q95LI5 22-117); experiment: Octet, purified paTCE
T5 construct: not shown: Fc, not described
T5 sequence (looked up): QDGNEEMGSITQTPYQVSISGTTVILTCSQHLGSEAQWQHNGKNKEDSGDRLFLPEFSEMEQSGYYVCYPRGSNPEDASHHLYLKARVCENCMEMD
Experimental: as §1

[12] = molecular target: T2, human EGFR; experiment: SPR Biacore 37 C
[13] = molecular target: T6, cynomolgus monkey EGFR (cynomolgus monkey, UniProt A0A2K5WK39 25-645); experiment: SPR Biacore 37 C
T6 construct: also called Cyno EGFR

[14] = molecular target: T1, human CD3; experiment: SPR Biacore 37 C
[15] = molecular target: T7, cynomolgus monkey CD3 (cynomolgus monkey, UniProt Q95LI5 22-117); experiment: SPR Biacore 37 C
T7 construct: also called Cyno CD3
T7 sequence: T5 sequence (looked up)

Chain of huCD3e (P07766 23-126): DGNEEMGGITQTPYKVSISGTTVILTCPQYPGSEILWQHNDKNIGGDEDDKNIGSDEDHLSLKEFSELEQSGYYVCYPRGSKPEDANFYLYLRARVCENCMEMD
T1 sequence (P07766 23-126 limits assumed): as the sequence (P07766 23-126) above
T3 sequence (P07766 23-126): as above
T4 sequence (P07766 23-126): as above

- Kd [1]: ~203 nM
- Kd [2]: 7.3 nM
B1: AC2908 (EGFR.60/CD3.23 paTCE) (bispecific antibody)
scFv 1: EIVLTQSPGTLSLSPGERATLSCQASQDISNYLNWYQQKPGQAPRLLIYDASNLETGIPDRFSGSGSGTDFTLTISRLEPEDFAVYYCQHFDHLPLAFGQGTKVEIKGATPPETGAETESPGETTGGSAESEPPGEGQVQLQQWGAGLLKPSETLSLTCAVYGGSVSSGDYYWTWIRQPPGKGLEWIGHIYYSGNTNYNPSLKSRVTISVDTSKNQFSLKLSSVTAADTAVYYCARDRVTGAFDIWGQGTLVTVSS
scFv 2: ELVVTQEPSLTVSPGGTVTLTCRSSNGAVTSSNYANWVQQKPGQAPRGLIGGTNKRAPGTPARFSGSLLGGKAALTLSGVQPEDEAVYYCALWYPNLWVFGGGTKLTVLGATPPETGAETESPGETTGGSAESEPPGEGEVQLLESGGGIVQPGGSLKLSCAASGFTFNTYAMNWVRQAPGKGLEWVARIRSKYNNYATYYADSVKDRFTISRDDSKNTVYLQMNNLKTEDTAVYYCVRHENFGNSYVSWFAHWGQGTLVTVSS
notes: EGFR library format (remarks)
- EC50 HT-29 (pM), in vitro cytotoxicity, E:T 5:1 [3]: 94 pM

- Kd [4]: 15.4 nM
- Kd [1]: 203 nM
- Kd [2]: 2.3 nM
B2: AC2885 (EGFR.37/CD3.23 paTCE) (bispecific antibody)
scFv 1: DIQMTQSPSSLSASVGDRVTITCQASQDISNYLNWYQQKPGKAPKLLIYDASNLETGVPSRFSGSGSGTDFTFTISSLQPEDIATYYCQHFDHLPLAFGQGTKVEIKGATPPETGAETESPGETTGGSAESEPPGEGQVQLQESGPGLVKPSETLSLTCTVSGGSVSSGDYYWTWIRQPPGKGLEWIGHIYYSGNTNYNPSLKSRVTISVDTSKNQFSLKLSSVTAADTAVYYCARDRVTGAFDIWGQGTLVTVSS
scFv 2: B1 scFv 2
notes: EGFR library format (remarks)

- Kd [1]: ~203 nM
- Kd [2]: 2.4 nM
B3: AC2909 (EGFR.61/CD3.23 paTCE) (bispecific antibody)
scFv 1: B1 scFv 1 with Q143E, W144S, A146P, L149V, A160T, Y162S
scFv 2: B1 scFv 2
notes: EGFR library format (remarks)

- Kd [1]: ~203 nM
- Kd [2]: 4.4 nM
B4: AC2920 (EGFR.72/CD3.23 paTCE) (bispecific antibody)
scFv 1: B1 scFv 1 with G9A, D60A, R77S
scFv 2: B1 scFv 2
notes: EGFR library format (remarks)
- EC50 HT-29 (pM), in vitro cytotoxicity, E:T 5:1 [3]: 85 pM

- Kd [1]: ~203 nM
- Kd [2]: 7.2 nM
B5: AC2897 (EGFR.49/CD3.23 paTCE) (bispecific antibody)
scFv 1: B2 scFv 1 with F73L, I83F
scFv 2: B1 scFv 2
notes: EGFR library format (remarks)

- Kd [1]: ~203 nM
- Kd [2]: 2.45 nM
B6: AC2921 (EGFR.73/CD3.23 paTCE) (bispecific antibody)
scFv 1: B1 scFv 1 with G9A, D60A, R77S, Q143E, W144S, A146P, L149V, A160T, Y162S
scFv 2: B1 scFv 2
notes: EGFR library format (remarks)

- Kd [5]: 13.5 nM
B7: AC3471 (CD3.23, WT) (bispecific antibody, V domains shown)
VH: EVQLLESGGGIVQPGGSLKLSCAASGFTFNTYAMNWVRQAPGKGLEWVARIRSKYNNYATYYADSVKDRFTISRDDSKNTVYLQMNNLKTEDTAVYYCVRHENFGNSYVSWFAHWGQGTLVTVSS
VL: ELVVTQEPSLTVSPGGTVTLTCRSSNGAVTSSNYANWVQQKPGQAPRGLIGGTNKRAPGTPARFSGSLLGGKAALTLSGVQPEDEAVYYCALWYPNLWVFGGGTKLTVL
notes: Pool 2 format (remarks)

- Kd [6]: 4.67 nM
- Kd [4]: 4.67 nM
- Kd [7]: 8 nM
- Kd [8]: 5.6 nM
B8: AC3768 (CD3.23 control) (scFv, V domains shown)
VH: B7 VH
VL: B7 VL
notes: Pool 3 format (remarks)

- Kd [9]: 8.5 nM
B9: AC3364 (CD3.23-L7, WT) (bispecific antibody, V domains shown)
VH: B7 VH
VL: B7 VL
notes: Pool 1 format (remarks)

- Kd [5]: 12.9 nM
B10: AC2717 (CD3.23, WT) (bispecific antibody, V domains shown)
VH: B7 VH
VL: B7 VL
notes: Pool 2 format (remarks); paired with an anti-PSMA VHH variant

- Kd [10]: 131 nM
- koff [10]: 0.0289 s⁻¹
- kon [10]: 220000 M⁻¹ s⁻¹
- Kd [11]: 130 nM
- koff [11]: 0.0312 s⁻¹
- kon [11]: 240000 M⁻¹ s⁻¹
B11: CD3.23 anti-CD3 scFv (scFv, V domains shown)
VH: B7 VH
VL: B7 VL
notes: Parental domain

- Kd [6]: 5.38 nM
- Kd [4]: 5.38 nM
- Kd [7]: 5.7 nM
B12: AC3822 (CD3.318) (scFv, V domains shown)
VH: B7 VH with L5V, K19R, N30S, A49G, S53T, Y55R, N57D, D68G, V81L, N87S
VL: B7 VL with G70E
notes: Pool 3 format (remarks)

- Kd [6]: 3.11 nM
- Kd [4]: 3.11 nM
- Kd [7]: 3.7 nM
B13: AC3799 (CD3.295) (scFv, V domains shown)
VH: B7 VH with L5V, K19R, N30S, A49G, S53T, Y55R, D68G, N87S
VL: B7 VL with L69N
notes: Pool 3 format (remarks)

- Kd [6]: 3.89 nM
- Kd [4]: 3.89 nM
- Kd [7]: 4.1 nM
- Kd [8]: 3 nM
B14: AC3796 (CD3.292) (scFv, V domains shown)
VH: B7 VH with L5V, K19R, N30S, A49G, S53T, Y55R, D68G, N87S
VL: B7 VL
notes: Pool 3 format (remarks)

- Kd [5]: 32.8 nM
B15: AC3682 (CD3.251) (bispecific antibody, V domains shown)
VH: B7 VH with L5V, K19R, A49G, Y55R, Y61T, N87S
VL: B7 VL
notes: Pool 2 format (remarks)

- Kd [12]: 0.034 nM
- koff [12]: 0.00023 s⁻¹
- kon [12]: 6.45e+06 M⁻¹ s⁻¹
- Kd [13]: 0.042 nM
- koff [13]: 0.00017 s⁻¹
- kon [13]: 4.1e+06 M⁻¹ s⁻¹
- Kd [14]: 29.2 nM
- koff [14]: 0.128 s⁻¹
- kon [14]: 4.4e+06 M⁻¹ s⁻¹
- Kd [15]: 28 nM
- koff [15]: 0.14 s⁻¹
- kon [15]: 5e+06 M⁻¹ s⁻¹
B16: AMX-525 (uTCE) (bispecific antibody)
chain: GTSESATPESDIQMTQSPSSLSASVGDRVTITCQASQDISNYLNWYQQKPGKAPKLLIYDASNLETGVPSRFSGSGSGTDFTFTISSLQPEDIATYYCQHFDHLPLAFGQGTKVEIKSESATPESGPGTSPGATPESGPGTSESATPQVQLQESGPGLVKPSETLSLTCTVSGGSVSSGDYYWTWIRQPPGKGLEWIGHIYYSGNTNYNPSLKSRVTISVDTSKNQFSLKLSSVTAADTAVYYCARDRVTGAFDIWGQGTLVTVSSGGGGSELVVTQEPSLTVSPGGTVTLTCRSSNGAVTSSNYANWVQQKPGQAPRGLIGGTNKRAPGTPARFSGSLLEGKAALTLSGVQPEDEAVYYCALWYPNLWVFGGGTKLTVLSESATPESGPGTSPGATPESGPGTSESATPEVQLVESGGGIVQPGGSLRLSCAASGFTFSTYAMNWVRQAPGKGLEWVGRIRTKRNDYATYYADSVKGRFTISRDDSKNTLYLQMNSLKTEDTAVYYCVRHENFGNSYVSWFAHWGQGTLVTVSSGTATPESGPG
notes: Fully unmasked metabolite; also called unmasked AMX-525; not shown: remnant of cleaved RSR-3213
